In patent US20180265560A1 (CASE WESTERN RESERVE UNIVERSITY, published 2018):
Bridges are numbered along the chain shown (N, C = ends). Where no end group is shown, it is not given here.

What was measured:
[1] = biological target: T1, Type 1 IGF-I receptor (UniProt P08069 31-1367, limits assumed); test: competitive receptor-binding assay, against wild-type human insulin as reference
T1 construct: also called IGF-1R; Type 1 insulin-like growth factor receptor

[2] = biological target: T2, A isoform of the insulin receptor (UniProt P06213-2 28-1370, limits assumed); test: competitive displacement of radiolabelled tracer, receptor on microtiter plates coated with AU5 IgG
T2 construct: isoform A lacks exon 11; also called IR-A
Experimental: The assay employed the A isoform of the insulin receptor. […] The protocol for assay of receptor-binding activities was as follows. Microtiter strip plates (Nunc Maxisorb) were incubated overnight at 4° C. with AU5 IgG (100 μl/well of 40 mg/ml in phosphate-buffered saline). Binding data were analyzed by a two-site sequential model.

| fold lower affinity than wild-type human insulin [1] [fold] | Kd [2] [pM] | Binder |
| --- | --- | --- |
| 5 | 60 | SCI-57DP (ligand, disulfide 19-56, 42-47, 7-43, Made in Pichia pastoris; the cleaved product has 57 residues with native disulfide bridges; also called SCI-2; Thermalin-biphasic) FVNQHLCGSHLVEALYLVCGERGFFYTDPTEEGPRRGIVEQCCHSICSLEQLENYCN |
|  | 80 | SCI-57PE (ligand, disulfide 19-56, 42-47, 7-43, Made in Pichia pastoris; the cleaved product has 57 residues with native disulfide bridges; also called SCI-1; Thermalin-biphasic) FVNQHLCGSHLVEALYLVCGERGFFYTPETEEGPRRGIVEQCCHSICSLEQLENYCN |
